Experimental data taken from patent publication US20220275067A1 (PROTHENA BIOSCIENCES, published 2022).

B1: hu9F5VHv9/hu9F5VLv8 (antibody, V domains shown)
VH: EVQLVQSGAEVKKPGATVKISCKASGFNIKDDYMNWVQQRPGKGLEWIGWIDPENGDTEYASKFQGRATMTADTSTNTAYMELSSLRSEDTAVYYCTTSNGWGQGTLVTVSS
VL: DIVMTQSPFSLPVTPGESASISCRSSKSLLHSNGITYLYWYLQKPGQSPQLLIYQMSNLASGVPNRFSSSGSGTDFTLKISRVEAEDVGVYYCAQNLELPLTFGQGTKLEIK
B2: hu9F5VHv9/hu9F5VLv8_DIM6 (antibody, V domains shown)
VH: EVQLVQSGAEVKKPGATVKISCKASGFNIKDDYMNWVQQRPGKGLEWIGWIDPENGDTEYASKFQGRATMTADTSTNTAYMELSSLRSEDTAVYYCTTSNGWGQGTLVTVSS
VL: DIQMTQSPFSLPVTPGESASISCRSSKSLDHSNGITYLYWYQQKPGQSPQLLIYQGSNRASGVPNRFSSSGSGTDFTLKISRVEAEDVGVYYCAQNIELPLTFGQGTKLEIK
B3: hu9F5VHv9/hu9F5VLv8_DIM16 (antibody, V domains shown)
VH: EVQLVQSGAEVKKPGATVKISCKASGFNIKDDYMNWVQQRPGKGLEWIGWIDPENGDTEYASKFQGRATMTADTSTNTAYMELSSLRSEDTAVYYCTTSNGWGQGTLVTVSS
VL: DIQMTQSPFSLPVTPGESASISCRSSKSLGHSNGITYLYWYGQKPGQSPQLLIYQGSNTASGVPNRFSSSGSGTDFTLKISRVEAEDVGVYYCAQNLELPLTFGQGTKLEIK
B4: hu9F5VHv9/hu9F5VLv8_DIM15 (antibody, V domains shown)
VH: EVQLVQSGAEVKKPGATVKISCKASGFNIKDDYMNWVQQRPGKGLEWIGWIDPENGDTEYASKFQGRATMTADTSTNTAYMELSSLRSEDTAVYYCTTSNGWGQGTLVTVSS
VL: DIQMTQSPFSLPVTPGESASISCRSSKSLGHSNGITYLYWYGQKPGQSPQLLIYQGSNTASGVPNRFSSSGSGTDFTLKISRVEAEDVGVYYCAQNGELPLTFGQGTKLEIK
B5: hu9F5VHv9/hu9F5VLv8_DIM12 (antibody, V domains shown)
VH: EVQLVQSGAEVKKPGATVKISCKASGFNIKDDYMNWVQQRPGKGLEWIGWIDPENGDTEYASKFQGRATMTADTSTNTAYMELSSLRSEDTAVYYCTTSNGWGQGTLVTVSS
VL: DIQMTQSPFSLPVTPGESASISCRSSKSLGHSNGITYLYWYGQKPGQSPQLLIYQGSNRASGVPNRFSSSGSGTDFTLKISRVEAEDVGVYYCAQNGELPLTFGQGTKLEIK
B6: hu9F5VHv9/hu9F5VLv8_DIM1 (antibody, V domains shown)
VH: EVQLVQSGAEVKKPGATVKISCKASGFNIKDDYMNWVQQRPGKGLEWIGWIDPENGDTEYASKFQGRATMTADTSTNTAYMELSSLRSEDTAVYYCTTSNGWGQGTLVTVSS
VL: DIQMTQSPFSLPVTPGESASISCRSSKSLSHSNGITYLYWYQQKPGQSPQLLIYQGSNGASGVPNRFSSSGSGTDFTLKISRVEAEDVGVYYCAQNIELPLTFGQGTKLEIK
B7: hu9F5VHv9/hu9F5VLv8_DIM7 (antibody, V domains shown)
VH: EVQLVQSGAEVKKPGATVKISCKASGFNIKDDYMNWVQQRPGKGLEWIGWIDPENGDTEYASKFQGRATMTADTSTNTAYMELSSLRSEDTAVYYCTTSNGWGQGTLVTVSS
VL: DIQMTQSPFSLPVTPGESASISCRSSKSLDHSNGITYLYWYQQKPGQSPQLLIYQKSNRASGVPNRFSSSGSGTDFTLKISRVEAEDVGVYYCAQNIELPLTFGQGTKLEIK
B8: hu9F5VHv9/hu9F5VLv8_DIM11 (antibody, V domains shown)
VH: EVQLVQSGAEVKKPGATVKISCKASGFNIKDDYMNWVQQRPGKGLEWIGWIDPENGDTEYASKFQGRATMTADTSTNTAYMELSSLRSEDTAVYYCTTSNGWGQGTLVTVSS
VL: DIQMTQSPFSLPVTPGESASISCRSSKSLGHSNGITYLYWYGQKPGQSPQLLIYQGSNRASGVPNRFSSSGSGTDFTLKISRVEAEDVGVYYCAQNIELPLTFGQGTKLEIK
B9: hu9F5VHv9/hu9F5VLv8_DIM8 (antibody, V domains shown)
VH: EVQLVQSGAEVKKPGATVKISCKASGFNIKDDYMNWVQQRPGKGLEWIGWIDPENGDTEYASKFQGRATMTADTSTNTAYMELSSLRSEDTAVYYCTTSNGWGQGTLVTVSS
VL: DIQMTQSPFSLPVTPGESASISCRSSKSLGHSNGITYLYWYQQKPGQSPQLLIYQKSNRASGVPNRFSSSGSGTDFTLKISRVEAEDVGVYYCAQNIELPLTFGQGTKLEIK
B10: hu9F5VHv9/hu9F5VLv8_DIM2 (antibody, V domains shown)
VH: EVQLVQSGAEVKKPGATVKISCKASGFNIKDDYMNWVQQRPGKGLEWIGWIDPENGDTEYASKFQGRATMTADTSTNTAYMELSSLRSEDTAVYYCTTSNGWGQGTLVTVSS
VL: DIQMTQSPFSLPVTPGESASISCRSSKSLSHSNGITYLYWYQQKPGQSPQLLIYQGSNRASGVPNRFSSSGSGTDFTLKISRVEAEDVGVYYCAQNIELPLTFGQGTKLEIK
B11: hu9F5VHv9/hu9F5VLv8_DIM4 (antibody, V domains shown)
VH: EVQLVQSGAEVKKPGATVKISCKASGFNIKDDYMNWVQQRPGKGLEWIGWIDPENGDTEYASKFQGRATMTADTSTNTAYMELSSLRSEDTAVYYCTTSNGWGQGTLVTVSS
VL: DIQMTQSPFSLPVTPGESASISCRSSKSLSHSNGITYLYWYQQKPGQSPQLLIYQGSNRASGVPNRFSSSGSGTDFTLKISRVEAEDVGVYYCAQNGELPLTFGQGTKLEIK
B12: hu9F5VHv9/hu9F5VLv8_DIM13 (antibody, V domains shown)
VH: EVQLVQSGAEVKKPGATVKISCKASGFNIKDDYMNWVQQRPGKGLEWIGWIDPENGDTEYASKFQGRATMTADTSTNTAYMELSSLRSEDTAVYYCTTSNGWGQGTLVTVSS
VL: DIQMTQSPFSLPVTPGESASISCRSSKSLGHSNGITYLYWYGQKPGQSPQLLIYQGSNRASGVPNRFSSSGSGTDFTLKISRVEAEDVGVYYCAQNLELPLTFGQGTKLEIK
B13: hu9F5VHv9/hu9F5VLv8_DIM9 (antibody, V domains shown)
VH: EVQLVQSGAEVKKPGATVKISCKASGFNIKDDYMNWVQQRPGKGLEWIGWIDPENGDTEYASKFQGRATMTADTSTNTAYMELSSLRSEDTAVYYCTTSNGWGQGTLVTVSS
VL: DIQMTQSPFSLPVTPGESASISCRSSKSLGHSNGITYLYWYQQKPGQSPQLLIYQKSNGASGVPNRFSSSGSGTDFTLKISRVEAEDVGVYYCAQNIELPLTFGQGTKLEIK
B14: hu9F5VHv9/hu9F5VLv8_DIM10 (antibody, V domains shown)
VH: EVQLVQSGAEVKKPGATVKISCKASGFNIKDDYMNWVQQRPGKGLEWIGWIDPENGDTEYASKFQGRATMTADTSTNTAYMELSSLRSEDTAVYYCTTSNGWGQGTLVTVSS
VL: DIQMTQSPFSLPVTPGESASISCRSSKSLSHSNGITYLYWYQQKPGQSPQLLIYQKSNGASGVPNRFSSSGSGTDFTLKISRVEAEDVGVYYCAQNIELPLTFGQGTKLEIK
B15: hu9F5VHv9/hu9F5VLv8_DIM17 (antibody, V domains shown)
VH: EVQLVQSGAEVKKPGATVKISCKASGFNIKDDYMNWVQQRPGKGLEWIGWIDPENGDTEYASKFQGRATMTADTSTNTAYMELSSLRSEDTAVYYCTTSNGWGQGTLVTVSS
VL: DIQMTQSPFSLPVTPGESASISCRSSKSLSHSNGITYLYWYGQKPGQSPQLLIYQGSNTASGVPNRFSSSGSGTDFTLKISRVEAEDVGVYYCAQNIELPLTFGQGTKLEIK
B16: hu9F5VHv9/hu9F5VLv8_DIM14 (antibody, V domains shown)
VH: EVQLVQSGAEVKKPGATVKISCKASGFNIKDDYMNWVQQRPGKGLEWIGWIDPENGDTEYASKFQGRATMTADTSTNTAYMELSSLRSEDTAVYYCTTSNGWGQGTLVTVSS
VL: DIQMTQSPFSLPVTPGESASISCRSSKSLGHSNGITYLYWYGQKPGQSPQLLIYQGSNTASGVPNRFSSSGSGTDFTLKISRVEAEDVGVYYCAQNIELPLTFGQGTKLEIK
B17: hu9F5VHv9/hu9F5VLv8_DIM5 (antibody, V domains shown)
VH: EVQLVQSGAEVKKPGATVKISCKASGFNIKDDYMNWVQQRPGKGLEWIGWIDPENGDTEYASKFQGRATMTADTSTNTAYMELSSLRSEDTAVYYCTTSNGWGQGTLVTVSS
VL: DIQMTQSPFSLPVTPGESASISCRSSKSLGHSNGITYLYWYQQKPGQSPQLLIYQGSNRASGVPNRFSSSGSGTDFTLKISRVEAEDVGVYYCAQNIELPLTFGQGTKLEIK
B18: hu9F5VHv9/hu9F5VLv8_DIM18 (antibody, V domains shown)
VH: EVQLVQSGAEVKKPGATVKISCKASGFNIKDDYMNWVQQRPGKGLEWIGWIDPENGDTEYASKFQGRATMTADTSTNTAYMELSSLRSEDTAVYYCTTSNGWGQGTLVTVSS
VL: DIQMTQSPFSLPVTPGESASISCRSSKSLDHSNGITYLYWYGQKPGQSPQLLIYQGSNRASGVPNRFSSSGSGTDFTLKISRVEAEDVGVYYCAQNIELPLTFGQGTKLEIK
B19: hu9F5VHv9/hu9F5VLv8_DIM3 (antibody, V domains shown)
VH: EVQLVQSGAEVKKPGATVKISCKASGFNIKDDYMNWVQQRPGKGLEWIGWIDPENGDTEYASKFQGRATMTADTSTNTAYMELSSLRSEDTAVYYCTTSNGWGQGTLVTVSS
VL: DIQMTQSPFSLPVTPGESASISCRSSKSLSHSNGITYLYWYQQKPGQSPQLLIYQGSNTASGVPNRFSSSGSGTDFTLKISRVEAEDVGVYYCAQNIELPLTFGQGTKLEIK

Molecular target: T1, recombinant human 4R0N tau (human, UniProt P10636 2-758)
T1 construct: also called recombinant 4R0N human tau; P10636-6
Test: SPR Biacore T200; antibody captured by anti-human Fc; tau as analyte; global 1:1 fit
Method: Target binding analysis was performed using a Biacore T200 to compare the binding affinity of humanized 9F5 variants to recombinant human 4R0N tau. Anti-Human Fc antibody was immobilized on sensor chip CM3 via amine coupling, and humanized 9F5 variants were captured to equivalent levels. Various concentrations of recombinant 4R0N human tau (ranging from 0.02 nM to 12.5 nM) were passed over the captured ligand at 50 μL/min in running buffer (HBS+0.05% P-20, 1 mg/mL BSA) for 180 seconds association/420 seconds dissociation as a single cycle. Data was blank subtracted to both an irrelevant sensor not containing antibody and 0 nM analyte concentration. Analysis was performed using a global 1:1 fit with Biacore Evaluation software.

T1 sequence (P10636 other isoform, or with tags, fused parts or gaps limits assumed): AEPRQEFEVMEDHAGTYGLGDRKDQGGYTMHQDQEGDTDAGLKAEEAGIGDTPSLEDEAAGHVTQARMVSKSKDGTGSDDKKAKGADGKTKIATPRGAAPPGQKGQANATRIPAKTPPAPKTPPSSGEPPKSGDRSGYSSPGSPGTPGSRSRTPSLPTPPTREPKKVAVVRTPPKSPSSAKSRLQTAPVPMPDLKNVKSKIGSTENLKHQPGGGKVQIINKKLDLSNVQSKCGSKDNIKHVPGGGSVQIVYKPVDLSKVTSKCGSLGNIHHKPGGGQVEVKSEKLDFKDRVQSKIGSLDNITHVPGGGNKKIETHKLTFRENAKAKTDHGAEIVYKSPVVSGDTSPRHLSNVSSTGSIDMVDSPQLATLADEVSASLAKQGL

| Binder | Kd | koff | kon |
| --- | --- | --- | --- |
| B1 | 0.269 nM | 0.000429 s⁻¹ | 1.72e+06 M⁻¹ s⁻¹ |
| B2 | 0.178 nM | 0.000272 s⁻¹ | 1.53e+06 M⁻¹ s⁻¹ |
| B3 | 0.355 nM | 0.000808 s⁻¹ | 2.27e+06 M⁻¹ s⁻¹ |
| B4 | 0.873 nM | 0.000732 s⁻¹ | 839000 M⁻¹ s⁻¹ |
| B5 | 0.221 nM | 0.000429 s⁻¹ | 1.94e+06 M⁻¹ s⁻¹ |
| B6 | 0.844 nM | 0.00559 s⁻¹ | 6.62e+06 M⁻¹ s⁻¹ |
| B7 | 0.18 nM | 0.000424 s⁻¹ | 2.36e+06 M⁻¹ s⁻¹ |
| B8 | 0.0772 nM | 0.00011 s⁻¹ | 1.42e+06 M⁻¹ s⁻¹ |
| B9 | 0.435 nM | 0.000576 s⁻¹ | 1.32e+06 M⁻¹ s⁻¹ |
| B10 | 0.299 nM | 0.000586 s⁻¹ | 1.96e+06 M⁻¹ s⁻¹ |
| B11 | 2.63 nM | 0.00143 s⁻¹ | 542000 M⁻¹ s⁻¹ |
| B12 | 0.266 nM | 0.000439 s⁻¹ | 1.65e+06 M⁻¹ s⁻¹ |
| B13 | 5.07 nM | 0.0116 s⁻¹ | 2.29e+06 M⁻¹ s⁻¹ |
| B14 | 3.92 nM | 0.0741 s⁻¹ | 1.89e+07 M⁻¹ s⁻¹ |
| B15 | 0.128 nM | 0.000326 s⁻¹ | 2.54e+06 M⁻¹ s⁻¹ |
| B16 | 0.142 nM | 0.000188 s⁻¹ | 1.33e+06 M⁻¹ s⁻¹ |
| B17 | 0.169 nM | 0.000295 s⁻¹ | 1.75e+06 M⁻¹ s⁻¹ |
| B18 | 0.0447 nM | 9.39e-05 s⁻¹ | 2.1e+06 M⁻¹ s⁻¹ |
| B19 | 0.6 nM | 0.00068 s⁻¹ | 1.13e+06 M⁻¹ s⁻¹ |
